From the supplement of paper PMC10567573

B1: EPB41L3 (parent)
chain: FRFAPNHTKELEDKVIELHKSHRG

Variants of: B1
Experiment: protein stability index of a GFP-peptide fusion (GPS, HEK-293T) (PSI 1-6); higher = more stable
Conditions: c terminus: a fixed tail appended
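Note: lentivirally expressed fusions sorted by FACS into six bins by GFP to DsRed ratio, PSI derived from sequencing read proportions per bin multiplied by bin number.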

Variant	protein stability index
FRFAPNHTKELEDKVIELHKDHRG [S21D]	2.56
FRFAPNHTKELEDKVIELHKNHRG [S21N]	2.88
FRFAPNHTKELEDKVIELHKQHRG [S21Q]	2.59
FRFAPNHTKELEDKVIELHKTHRG [S21T]	2.47
FRFAPNHTKELEDKVIELHKEHRG [S21E]	2.9
FRFAPNHTKELEDKVIELHKAHRG [S21A]	2.47
FRFAPNHTKELEDKVIELHKLHRG [S21L]	1.83
FRFAPNHTKELEDKVIELHKKHRG [S21K]	1.74
FRFAPNHTKELEDKVIELHKMHRG [S21M]	2.14
FRFAPNHTKELEDKVIELHKCHRG [S21C]	1.78
FRFAPNHTKELEDKVIELHKIHRG [S21I]	2.25
FRFAPNHTKELEDKVIELHKGHRG [S21G]	2.42
FRFAPNHTKELEDKVIELHKHHRG [S21H]	1.71
FRFAPNHTKELEDKVIELHKFHRG [S21F]	1.78
FRFAPNHTKELEDKVIELHKRHRG [S21R]	2.1
FRFAPNHTKETEDKVIELHKSHRG [L11T]	2.21
FRFAPNHTKEVEDKVIELHKSHRG [L11V]	2.25
FRFAPNHTKEWEDKVIELHKSHRG [L11W]	1.99
FRFAPNHTKESEDKVIELHKSHRG [L11S]	1.72
FRFAPNHTKEYEDKVIELHKSHRG [L11Y]	2.05
FRFAPNHTKELYDKVIELHKSHRG [E12Y]	1.22
FRFAPNHTKELPDKVIELHKSHRG [E12P]	2.34
FRFAPNHTKELIDKVIELHKSHRG [E12I]	1.27
FRFAPNHTKELRDKVIELHKSHRG [E12R]	1.56

Variant	protein stability index
FRFAPNHTKELHDKVIELHKSHRG [E12H]	2.34
FRFAPNHTKELLDKVIELHKSHRG [E12L]	1.97
FRFAPNHTKELGDKVIELHKSHRG [E12G]	2.33
FRFAPNHTKELCDKVIELHKSHRG [E12C]	1.83
FRFAPNHTKELWDKVIELHKSHRG [E12W]	2.97
FRFAPNHTKELQDKVIELHKSHRG [E12Q]	2.09
FRFAPNHTKELKDKVIELHKSHRG [E12K]	1.96
FRFAPNHTKELDDKVIELHKSHRG [E12D]	1.83
FRFAPNHTKELTDKVIELHKSHRG [E12T]	1.36
FRFAPNHTKELFDKVIELHKSHRG [E12F]	2.17
FRFAPNHTKELSDKVIELHKSHRG [E12S]	2.41
FRFAPNHTKELMDKVIELHKSHRG [E12M]	1.75
FRFAPNHTKELADKVIELHKSHRG [E12A]	1.99
FRFAPNHTKELVDKVIELHKSHRG [E12V]	1.45
FRFAPNHTKELNDKVIELHKSHRG [E12N]	1.74
FRFAPNHTKELEDKVIELHRSHRG [K20R]	1.39
FRFAPNHTKELEDKVIELHSSHRG [K20S]	1.67
FRFAPNHTKELEDKVIELHYSHRG [K20Y]	2.95
FRFAPNHTKELEDKVIELHVSHRG [K20V]	2.71
FRFAPNHTKELEDKVIELHTSHRG [K20T]	2.12
FRFAPNHTKELEDKVIELHASHRG [K20A]	2.29
FRFAPNHTKELEDKVIELHGSHRG [K20G]	2.22
FRFAPNHTKELEDKVIELHMSHRG [K20M]	1.81
FRFAPNHTKELEDKVIELHDSHRG [K20D]	1.96

Variant	protein stability index
FRFAPNHTKELEDKVIELHESHRG [K20E]	2.84
FRFAPNHTKELEDKVIELHWSHRG [K20W]	1.54
FRFAPNHTKELEDKVIELHLSHRG [K20L]	2.81
FRFAPNHTKELEDKVIELHQSHRG [K20Q]	1.29
FRFAPNHTKELEDKVIELHNSHRG [K20N]	2.57
FRFAPNHTKELEDKVIELHFSHRG [K20F]	1.55
FRFAPNHTKELEDKVIELHCSHRG [K20C]	2.09
FRFAPNHTKELEDKVIELHPSHRG [K20P]	2.64
FRFAPNHTKELEDKVIELHISHRG [K20I]	2.12
FRFAPNHTKELEDKVIELHHSHRG [K20H]	2.44
FRFAPNHTKELEDKPIELHKSHRG [V15P]	2.33
FRFAPNHTKELEDKSIELHKSHRG [V15S]	2.44
FRFAPNHTKELEDKEIELHKSHRG [V15E]	2.23
FRFAPNHTKELEDKDIELHKSHRG [V15D]	2.92
FRFAPNHTKELEDKLIELHKSHRG [V15L]	2.69
FRFAPNHTKELEDKGIELHKSHRG [V15G]	2.55
FRFAPNHTKELEDKCIELHKSHRG [V15C]	2.24
FRFAPNHTKELEDKYIELHKSHRG [V15Y]	1.99
FRFAPNHTKELEDKMIELHKSHRG [V15M]	2.87
FRFAPNHTKELEDKNIELHKSHRG [V15N]	2.27
FRFAPNHTKELEDKAIELHKSHRG [V15A]	2.38
FRFAPNHTKELEDKTIELHKSHRG [V15T]	2.47
FRFAPNHTKELEDKKIELHKSHRG [V15K]	2.19
FRFAPNHTKELEDKQIELHKSHRG [V15Q]	2.54

Variant	protein stability index
FRFAPNHTKELEDKFIELHKSHRG [V15F]	2.46
FRFAPNHTKELEDKRIELHKSHRG [V15R]	1.95
FRFAPNHTKELEDKHIELHKSHRG [V15H]	2.38
FRFAPNHTKELEDKIIELHKSHRG [V15I]	2.75
FRFAPNHTKELEDKWIELHKSHRG [V15W]	1.93
FRFAPNHTKELEDKVIEVHKSHRG [L18V]	1.93
FRFAPNHTKELEDKVIEEHKSHRG [L18E]	2.43
FRFAPNHTKELEDKVIEMHKSHRG [L18M]	3.06
FRFAPNHTKELEDKVIEPHKSHRG [L18P]	1.89
FRFAPNHTKELEDKVIENHKSHRG [L18N]	2.01
FRFAPNHTKELEDKVIEYHKSHRG [L18Y]	1.36
FRFAPNHTKELEDKVIEQHKSHRG [L18Q]	2.53
FRFAPNHTKELEDKVIERHKSHRG [L18R]	2.75
FRFAPNHTKELEDKVIEHHKSHRG [L18H]	1.82
FRFAPNHTKELEDKVIEGHKSHRG [L18G]	2.02
FRFAPNHTKELEDKVIECHKSHRG [L18C]	2.9
FRFAPNHTKELEDKVIEWHKSHRG [L18W]	1.78
FRFAPNHTKELEDKVIEKHKSHRG [L18K]	2.6
FRFAPNHTKELEDKVIEAHKSHRG [L18A]	3.07
FRFAPNHTKELEDKVIEIHKSHRG [L18I]	2.35
FRFAPNHTKELEDKVIESHKSHRG [L18S]	2.51
FRFAPNHTKELEDKVIETHKSHRG [L18T]	3.79
FRFAPNHTKELEDKVIEDHKSHRG [L18D]	3.17
FRFAPNHTKELEDKVIEFHKSHRG [L18F]	1.73

Variant	protein stability index
FRFAPNHTKELEDKVIHLHKSHRG [E17H]	2.04
FRFAPNHTKELEDKVIALHKSHRG [E17A]	1.74
FRFAPNHTKELEDKVIQLHKSHRG [E17Q]	1.55
FRFAPNHTKELEDKVIVLHKSHRG [E17V]	2.55
FRFAPNHTKELEDKVIMLHKSHRG [E17M]	2.5
FRFAPNHTKELEDKVIKLHKSHRG [E17K]	1.72
FRFAPNHTKELEDKVISLHKSHRG [E17S]	2.12
FRFAPNHTKELEDKVIWLHKSHRG [E17W]	2.18
FRFAPNHTKELEDKVIILHKSHRG [E17I]	2.21
FRFAPNHTKELEDKVIDLHKSHRG [E17D]	2.18
FRFAPNHTKELEDKVIPLHKSHRG [E17P]	2.43
FRFAPNHTKELEDKVIFLHKSHRG [E17F]	2.34
FRFAPNHTKELEDKVILLHKSHRG [E17L]	1.67
FRFAPNHTKELEDKVITLHKSHRG [E17T]	1.86
FRFAPNHTKELEDKVICLHKSHRG [E17C]	1.95
FRFAPNHTKELEDKVIYLHKSHRG [E17Y]	2.66
FRFAPNHTKELEDKVIGLHKSHRG [E17G]	1.76
FRFAPNHTKELEDKVINLHKSHRG [E17N]	2.29
FRFAPNHTKELEDKVTELHKSHRG [I16T]	2.27
FRFAPNHTKELEDKVAELHKSHRG [I16A]	2.46
FRFAPNHTKELEDKVCELHKSHRG [I16C]	2.14
FRFAPNHTKELEDKVPELHKSHRG [I16P]	2.76
FRFAPNHTKELEDKVDELHKSHRG [I16D]	3.22
FRFAPNHTKELEDKVHELHKSHRG [I16H]	2.09

Variant	protein stability index
FRFAPNHTKELEDKVYELHKSHRG [I16Y]	2.43
FRFAPNHTKELEDKVSELHKSHRG [I16S]	2.11
FRFAPNHTKELEDKVRELHKSHRG [I16R]	1.81
FRFAPNHTKELEDKVNELHKSHRG [I16N]	2.42
FRFAPNHTKELEDKVLELHKSHRG [I16L]	2.01
FRFAPNHTKELEDKVVELHKSHRG [I16V]	2.71
FRFAPNHTKELEDKVEELHKSHRG [I16E]	2.95
FRFAPNHTKELEDKVMELHKSHRG [I16M]	2.1
FRFAPNHTKELEDKVGELHKSHRG [I16G]	1.98
FRFAPNHTKELEDKVQELHKSHRG [I16Q]	2.12
FRFAPNHTKELEDKVWELHKSHRG [I16W]	2.13
FRFAPNHTKELEDKVKELHKSHRG [I16K]	2.1
FRFAPNHTKELEDKVFELHKSHRG [I16F]	1.77
FRFAPNHTKELEAKVIELHKSHRG [D13A]	1.82
FRFAPNHTKELERKVIELHKSHRG [D13R]	2.77
FRFAPNHTKELEVKVIELHKSHRG [D13V]	1
FRFAPNHTKELEYKVIELHKSHRG [D13Y]	1.95
FRFAPNHTKELEHKVIELHKSHRG [D13H]	1.89
FRFAPNHTKELEGKVIELHKSHRG [D13G]	3.4
FRFAPNHTKELENKVIELHKSHRG [D13N]	2.79
FRFAPNHTKELEQKVIELHKSHRG [D13Q]	3.39
FRFAPNHTKELEFKVIELHKSHRG [D13F]	1.52
FRFAPNHTKELEKKVIELHKSHRG [D13K]	1.86
FRFAPNHTKELEIKVIELHKSHRG [D13I]	2.9

Variant	protein stability index
FRFAPNHTKELESKVIELHKSHRG [D13S]	2.14
FRFAPNHTKELEEKVIELHKSHRG [D13E]	2.8
FRFAPNHTKELEMKVIELHKSHRG [D13M]	1.9
FRFAPNHTKELEPKVIELHKSHRG [D13P]	1.78
FRFAPNHTKELETKVIELHKSHRG [D13T]	1.67
FRFAPNHTKELELKVIELHKSHRG [D13L]	2.2
FRFAPNHTKELECKVIELHKSHRG [D13C]	2.65
FRFAPNHTKELEDKVIELLKSHRG [H19L]	2.12
FRFAPNHTKELEDKVIELSKSHRG [H19S]	2.11
FRFAPNHTKELEDKVIELVKSHRG [H19V]	1.89
FRFAPNHTKELEDKVIELEKSHRG [H19E]	2.72
FRFAPNHTKELEDKVIELTKSHRG [H19T]	1.81
FRFAPNHTKELEDKVIELDKSHRG [H19D]	2.07
FRFAPNHTKELEDKVIELYKSHRG [H19Y]	1.88
FRFAPNHTKELEDKVIELKKSHRG [H19K]	1.99
FRFAPNHTKELEDKVIELWKSHRG [H19W]	1.53
FRFAPNHTKELEDKVIELRKSHRG [H19R]	2.19
FRFAPNHTKELEDKVIELIKSHRG [H19I]	1.83
FRFAPNHTKELEDKVIELGKSHRG [H19G]	1.88
FRFAPNHTKELEDKVIELMKSHRG [H19M]	2.05
FRFAPNHTKELEDKVIELQKSHRG [H19Q]	2.66
FRFAPNHTKELEDKVIELCKSHRG [H19C]	2.03
FRFAPNHTKELEDKVIELPKSHRG [H19P]	2.72
FRFAPNHTKELEDKVIELFKSHRG [H19F]	1.95

Variant	protein stability index
FRFAPNHTKELEDKVIELAKSHRG [H19A]	2.11
FRFAPNHTKELEDAVIELHKSHRG [K14A]	2.34
FRFAPNHTKELEDVVIELHKSHRG [K14V]	2.2
FRFAPNHTKELEDRVIELHKSHRG [K14R]	1.97
FRFAPNHTKELEDTVIELHKSHRG [K14T]	2.31
FRFAPNHTKELEDPVIELHKSHRG [K14P]	1.86
FRFAPNHTKELEDFVIELHKSHRG [K14F]	1.8
FRFAPNHTKELEDQVIELHKSHRG [K14Q]	1.56
FRFAPNHTKELEDGVIELHKSHRG [K14G]	2.48
FRFAPNHTKELEDCVIELHKSHRG [K14C]	1.89
FRFAPNHTKELEDIVIELHKSHRG [K14I]	2.66
FRFAPNHTKELEDWVIELHKSHRG [K14W]	1.96
FRFAPNHTKELEDEVIELHKSHRG [K14E]	2.53
FRFAPNHTKELEDNVIELHKSHRG [K14N]	2.25
FRFAPNHTKELEDLVIELHKSHRG [K14L]	1.78
FRFAPNHTKELEDYVIELHKSHRG [K14Y]	2.44
FRFAPNHTKELEDDVIELHKSHRG [K14D]	2.32
FRFAPNHTKELEDMVIELHKSHRG [K14M]	2.01
FRFAPNHTKELEDHVIELHKSHRG [K14H]	2.74
FRFAPNHTKELEDSVIELHKSHRG [K14S]	1.97
